Measurements reported in PMC11140114.

Target: recombinant human dynamin-related protein 1 (Drp1), isoform 1 (human) (UniProt O00429)
Sequence (O00429 whole entry, canonical isoform): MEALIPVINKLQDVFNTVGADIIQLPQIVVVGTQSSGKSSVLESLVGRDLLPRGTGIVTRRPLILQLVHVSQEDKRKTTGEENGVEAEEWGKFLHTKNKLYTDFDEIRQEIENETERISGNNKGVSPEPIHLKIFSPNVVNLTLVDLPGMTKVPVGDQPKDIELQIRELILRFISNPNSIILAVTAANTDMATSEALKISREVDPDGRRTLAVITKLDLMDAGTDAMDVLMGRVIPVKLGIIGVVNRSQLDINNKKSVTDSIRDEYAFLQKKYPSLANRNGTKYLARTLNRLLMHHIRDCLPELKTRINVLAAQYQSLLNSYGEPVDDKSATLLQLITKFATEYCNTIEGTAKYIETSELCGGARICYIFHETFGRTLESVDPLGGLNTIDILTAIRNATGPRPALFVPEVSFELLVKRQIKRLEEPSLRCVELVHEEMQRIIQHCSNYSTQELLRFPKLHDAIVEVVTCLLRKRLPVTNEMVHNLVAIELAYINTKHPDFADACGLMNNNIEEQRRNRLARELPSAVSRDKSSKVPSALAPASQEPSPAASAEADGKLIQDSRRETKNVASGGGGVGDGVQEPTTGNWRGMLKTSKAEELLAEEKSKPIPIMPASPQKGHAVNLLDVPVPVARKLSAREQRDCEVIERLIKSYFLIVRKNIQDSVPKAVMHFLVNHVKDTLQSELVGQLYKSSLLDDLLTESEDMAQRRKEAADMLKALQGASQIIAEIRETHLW

B1: Drp1-specific nanobody D63 (VHH)
VHH: QVQLVESGGDLVQPGGSLKLSCAVSGVSDSLSSFYLMAWHRQAPGKQREMIADIVSGKATYADSVKGRFTISRDNAENTAYLQMNSLKPEDTAVYYCNVLIQNRSTFQSYWGQGTQVTVSS
  GTPase rate of 100 nM Drp1 with 0, 10, 100 or 1,000 nM Nb (continuous regenerative assay, 37°C); factor of increase after addition of a 10-fold molar excess of D63: 1.7 fold
